Assay results published in the DeepSol protein solubility set.

Experiment: soluble on expression in E. coli; label from the status in PepcDB or PDB records

| Sequence | soluble on expression in E. coli |
| --- | --- |
| MDQQSTRTDITVNVDGFWMLQALLDIRHVAPELRCRPYVSTDSNDWLNEHPGMAVMREQGIVVNDAVNEQVAARMKVLAAPDLEVVALLSRGKLLYGVIDDENQPPGSRDIPDNEFRVVLARRGQHWVSAVRVGNDITVDDVTVSDSASIAALVMDGLESIHHADPAAINAVNVPMEEMLEATKSWQESGFNVFSGGDLRRMGISAATVAALGQALSDPAAEVAVYARQYRDDAKGPSASVLSLKDGSGGRIALYQQARTAGSGEAWLAICPATPQLVQVGVKTVLDTLPYGEWKTHSRV | soluble |
| MGHHHHHHSHMATSEILPSFVATMDASNFSFWQVLCSWLSNSPNYEEITKWYLGWKSMFSDQVLAHPSVKDKFNEALDIMNRAVSSNVGAYMQPGARENIAYLTHTERRKDFQYEAMQERREAENMAQRGIGVAASSVPMNFKDLIETKAEEHNIVFMPVIGKRHEGKQLYTFGRIVIYIDRGVVFVQGEKTWVPTSLQSLIDMAK | not soluble |
| MSLCDRSEVGDVSLGMFTLKDIKINNLTDPVVTGVTCHVASIEADLSLADPSDSSISCRQTGEITPEMIAQIDKSSSGEVVFQKSKSIFFKSMKIRRIFDAKNQTLMYLSYSTKETSGSFKHSLSTVPLWGTQAYNAFPETQNKEGHHHHHH | soluble |
| MGSDKIHHHHHHMTKDYVIEMRNITKIFGEFVANDHINLNVRRGEIHALLGENGAGKSTLMNMLAGLLEPTSGEIVINGQSVKIDSPSKAAQLGIGMVHQHFMLVDAFTVAENIILGSETTKGGVIDLKKAIAEIKELSAKYGLEVDPTAKVADISVGAQQRVEILKTLYRGADLLIFDEPTAVLTPAEIAELLKIMKALVEEGKSIILITHKLDEIRAVADSVTVIRRGKSIETVAVEGATNQDLAEWMVGRSVSFKTEKVEASPKEVILSIKDLVVNENRGIPAVKGLSLDVRAGEVVGIAGIDGNGQSELIQAITGLRKVKSGSITIKGEEVVGKTPRKITEMQVSHVPEDRHRDGLVLPMTVAENFALQTYYKEPISKNGILNYNIINEKARALMEEFDVRGASELVPIKALSGGNQQKAIIAREIDRNPDLFIVSQPTRGLDVGAIEYIRKRLIAERDKGKAVLVVSFELDEILDVSDRIAVIHDGVIHGIVEPAKTNKQELGVLMAGGHIEKGEEHA | not soluble |
| MSGDYRITLEELRYISVFHSITGVTAYRCIVDEENNRLIFLVSEGEAGRAIGRGGRLIKLLREALGKNIEVVEYSSDLERIVKNLFPGVKIESINVRERNGVKQVVIKVSEDDKGAAIGKGGKNVKRARLVLSKLFGVEKVVIR | soluble |
| MSLAEFIYTMRKVRKAHGDKVILDDVNLNFLPGAKIGVVGPNGAGKSSVLRIMAGLDTPNNGDAYLAPGASVGILQQEPHLDETKTVRENVEEGVPIKGKLNRYNEVAELMATDYSDELMEEMGRLQEELDAADAWDIDSQLEQAMDALRCPPPDEPVTHLSGGERRRVALCKLLLSKPDLLLLDEPTNHLDAESVLWLEQHLASYKGAILAVTHDRYFLDNVAEWILELDRGRAYPYEGNYSTYLEKKAERLEVQGKKDQKLQKRLKEELAWVRSGAKARQAKNKARLGRYEEMAAEAEKSRKLDFEEIQIPTPPRLGNVVVEVEHLDKGFEGRTLIKDLSFTLPRNGIVGVIGPNGVGKTTLFKTIVGLEQPDSGVVRVGDTVKLSYVDQNRAGIDPKKNVWEVVSDGLDYIEVGQNEIPSRAYVSAFGFKGPDQQKPAGVLSGGERNRLNLALTLKEGGNLILLDEPTNDLDVETLSSLEHALEQFPGCAVVISHDRWFLDRTCTHILAWEGDDDNEAKWFWFEGEGHHHHHH | soluble |
| MAHHHHHHMRVRSLLLCIRRDPLQRAVDVAYASGMLLGSGSSRGTTHFSETTAFTSSNFAADLRGGRVGLAGDGGTKCDDRNGELVRGRIQFASRCAEGPFVGASPTVTSCAHIEGVVRQVECGYVGGDRVLQFIIEVEEVPASGGTPMRLPLAVRWRPGSEVAQNRMDEWQKEMERLVGRRVLASGRLQVEECFDSGSRRLYKTPSLVLPATSTVEMISLQELEC | not soluble |
| MSRVITHGQVKRVSETNAYAVPVESLTFPTLQPIGPLPPAGTTGVLITQRVPNTPYTPAPPPPPPVPANQTIIYEDGNNNNTIYMRVVSVVGPAKYNIEVL | not soluble |
| MGSDKIHHHHHHMMATIKDIAKEVGCSISTVSRVLNNDPTLSVGDETRSRIFEVAEEIGYRKKTLKTLVKNIAFLYWLTDNEELEDVYFQTMRVEIEKKARENNIELTTYKLEGGIEKIPLDIDGFIAVGSFMNRELEYLRELTPHGVFIDSTPDPAHYDSVRPDLAQITRQAVEVLVEQGHEKIGFIGGTYHNLDTDAEEMDGRERAFRQTMEERDLLREDFIFCRRGFSVDNGHYLMNQAVEQLGEELPTAFYVAADPIAVGCLQVLNEQQIEIPKRVSLISVNDTSISKYVSPPLTTFHIDLEEICQNAIQLLLERVLKKRNIVKTVYIGAELITRKSTL | not soluble |
| MGSDKIHHHHHHMDIRHLRYFVSIVDNDFNLSRASLNLYVSQPALSMMISDFENKEGVQLFKRAQGKIVGLTYVGENYYRDAKEVIKKYNEMHSNLHKSIEQIKGHISIGIPPLILSVVFSEVMPKLILNNPEINFTIKELGAYLLKSDLLLENIDFAVLLNPERISKNIIESYEIHRSELSLFLSPKHHLSAKENITWRDLHGEKIVIFDQTFMIHHQLVESFERHNVYPNIVLKSSSWDFLLYSVKINESLLTILPLPMYEQYKSTEFICRRMEEAIPWSVTLCRLKKNCYTNVEEYIFDSLLKAFKP | not soluble |
| GSASDNAAYWSIATTMRSDNKALGAVSDALGMGAAKVDTASAGMDAAIKVVTDIKAKVVAAKEQGVDKTKVQEEVSQLLDQLKSIGTSASFNGENWLVSSANATKTVVSGFVRDAGGTVSVKTTDYALDANSMLYTEGTPGTIDANSGILNATGATTTVGAKTYTQISVLDMNVGTDDLDNALYSVETALTKMTSAGAKLGSLSARIDLQSGFADKLSDTIEKGVGRLV | not soluble |
| MLKSILRGALVATKPGPARRQFSFTALLRSETQPKEIINLERVQVRKMKKRRPVASSVVPKSLREPSVVAMALSESLNLNEVIMDAQLNGMYNITAIDEDADDSLHFVKKLEYTINPGELSEIFVFRDGVVVFWNVDSSQRSHILRELERYADAPYDSMIVMDEQDRMFYKFSEQSTGSTIRQDRFYLSGKHLDAFHGSNEAILERFALSQGFAASVKIGVWESLLNNLAEPLSNTTKSLTLGKIPWSRKQALMRSGEFAALRHSINLDCTLLNKDFYWERPELEKYYTMTGRHFSLDRRIGLLNKRLDYCEELVKMVDNTIALRHASHLEWMIIVLIVIEVIFDVFHFADKTPKSVMIVPDSSKAQQLRNEGN | not soluble |
| EVYALEESRDVYLSDLDWLNATHGDDTKSKIVQKNHPFTPGNNNQSTKISLKMEDGSISEFEKGLGTIAGSPSTITYDISGAGVTKFFSYLGIDRSANPINEQYAKVDKIEVVVDGKVIYSTINQFPNGLTYETPAIKVDLNIPENAKRLQLKSYAGEKTWGDEVVYADAKFTAKGDFVN | soluble |
| MNRNRLPALTPGLAWSRPMNGAVDHKGYEQPTYDLEFAETATEIRRYGPYLVAEVTMAGDRSTAITRGFRVLARYIFGGNAESRRIEMTVPVSQLPAGEDLWTVRFTMPAVRSASLLPAPKDSRIRFVTVPPSRQAVRRFSGWPTDHALRRQAEGLAHWIAERGLPKREGPYFYFYDSPMTLPWQRRNEVAFGLGEGAAALEHHHHHH | not soluble |
| MKPKVVRYLDEGEFPLAEEEALRLYRAMRRARFFDEKALTLQRQGRLGVYAPFMGQEAAQVGVALALEERDWVVPSYRESAMLLAKGLPIHTLILYWRAHPAGWRFPEGVRAVNPYIPIATQIPQAVGLALAGRYRGEDWVVATSIGDGGTSEGDFHEGLNFAAVFGAPVVFLVQNNGYAISVPKSRQMKVDYVARRAEGYGMPGVVVDGNDAFAVYLEAKKAVERARKGEGPTLLEALTYRLAPHTTSDDPSRYRSKEEEEAWRAKDPILRLRKALEGRGLWGEEAEKALLLELEEEFQRELALADEAPEPRPEEIVEHVYAEMGPDQRRAWEALRRGLHVEEVE | soluble |
| MSLRSAKHHFGAATSRGTRPSNEDTYQAGVIDIPAFAKRPPASLTIRNRSARVAGLRENRGADSASGDPQVFYFGIFDGHGGSECSTFMKETLHEYIQDTAAEFELQSSLRKAGENSASPDAESELPIRQGSNVARVQRLEKSLVQSWRNLVGGYFRRFVPPNFSHLAKHTAEESSSVPENNKGVTIEEILEYAFLRADLDFVSAQASREDDELSNVCRPLYQDDILYGPSRSQSLNIAGLRRFKGGSTASTVMISTPTPAPFWHPASPSSLLVSHVGDTRMLLCSTVTGEAIPLTSNHHPSSPIEANRLRRYAATFVTDSFGEERISGLANTRAFGDVQSKRIGVSAEPELRRFEIAPAEYSFLVLMSDGISEALTDQEVVDIIKEAKTPDEGARHVVNFATEVTRTGDNATCLVVRLGGWEREGHHHHHH | not soluble |
| MNRYDRAITIFSPDGHLFQVEYAQEAVKKGSTAVGVRGKDCIVIGVEKKSIPALQDDRTIRKIHMIDDHVMLAFAGLSADARVLVDRARIECQSYKLTLEDPVTVAYISRYIANTKQRFTQSPGRRPFGISMLIGGFDHDGTPRLFKTEPSGAYYEYVANATGRGEKPVREYLEEQYSEENTVDEATTLKLVVKSLAQVVPPGSQNIEIAVMKKVNDELQQRVLSTEEIEALLKVVETERVAAEAEEAASKKK | not soluble |
| MSLKPTVWHHLRLCPHGHPDETIDDAAIAVDETGTIVWLGAVSALPHGYAHWRREDLHGAWVTPGLVDCHTHLVYGGTRADEFAQRLAGVSYEEIARQGGGIVSTVRATRAADETTLFVQAAARLQPLLAEGVTAIEIKSGYGLDLASERKMLRVARQLGERFPVTVYTTFLGAHALPPEYAGRADAYIDEVCDRMLPALADEGLVDAVDVFCERIGFSLAQTERVFEAATRRGLPVKLHAEQLSNAGGTALAARYRALSADHLEFLDEAGIEAMKAAGTVAVLLPGAYYFIRETQLPPIELLRKHGVPIALATDHNPGTSPLESLLLTLNMGCTLFRMTVPEVLQGVTCHAAAALGRADRHGALEVGRQADFAAWSVGSLAELAYWIGRPLCEQVVRGGTTVFRRMNGEGHHHHHH | soluble |
| MGSDKIHHHHHHMNSFLDSVCALLEQGEDVVIVTIAMQSGSTPRESGAKMAVRRDGSILGTVGGGLMEAGCMELGREMLTGRFASSAAESGPELAVIRHFDLSNEEAAKAAMVCGGRLTVVAEHIQAGRRGAEVLCAARDSLLQGKACGLETTMERLEHTAAATREACFAVTGRKTPDCGHAAPAAASATLDCDGKTCRFTEWLQPSPRMIIFGAGHVALPTAAMASMTGFAVTVLDDREEFASPQRFPQARTVVLPDFGQAFAQLTITPQCYVVIMTRGHLHDKTVLEQALKTPACYVGMIGSRRKRDALYDQLRSEGVDESSIARCHCPIGLEIGARTPEEIAVSIMAEIIACRAAGNGDGAS | not soluble |
| MDKIHAMQLFIRVADLESFSRAAETLALPKGSVSRQIQALESHLGVRLLHRTTRRVQLTQDGMVYYERAKDLLSNLDELDGMFQHDPASISGRLRVDMPVGFAKKMVIPHLPTFLQQYPGIELELSSSDRQVDVIREGFDCVVRVGALKDSGLIARPLGKLTQINCASPDYLARFGYPQSLEDLADHALIHYASTLGVRPPGFEVMIDGAVRWVKTGGILTVNSTETYQAACIAGLGIIQVPRTGVREALRAGDLIEILPQYRAEPLPVSLIYPHRRNLSRRVNLFMEWLGGLMKAYVD | not soluble |
| MSLEKHNEHKTLNHKSSKEKDQITNRLKRIEGQVRGIQNMVENDRYCVDILVQISAVQAAMKNVALHLLEDHAHHCVADAIKSGDGEQAISELLDVFKKFTKSEGHHHHHH | soluble |
